Measured values as given in article PMC8611056.
Each block holds one substance with its values, some of them ahead of it.

How the values were obtained:
[1] = biological target: vWF on calcium ionophore-activated HUVEC monolayers (human (endogenous in HUVEC)); experiment: bacterial adhesion to cell monolayers (ELISA-type); ionophore-treated HUVEC monolayers incubated for 1 h with S. aureus SH1000 WT or isdB mutant (with or without 250 ng/well mAb 6D1 or isotype control), or with L. lactis with pNZ8037::isdB or empty vector
[2] = biological target: human von Willebrand factor (human) (UniProt P04275); experiment: ELISA; competition: wells coated with 1 μg of vWF, 1 μg of IsdB with or without 10 μg/well of each vWF ligand; detected with anti-IsdB IgG; percent of control without competitor
[3] = biological target: IsdB NEAT1 (aa residues 144-270) (S. aureus SH1000) (UniProt Q2FZF0); experiment: SPR; Biacore X-100; 6xHis-IsdB proteins captured on Ni2+-NTA chip, A1 lacking the 6xHis tag as analyte (0.08 to 1.25 μM), single-cycle mode, 25 °C; heterogeneous ligand binding model (two ligand populations L1, L2); buffer PBS with 0.005% Tween 20 or HBS-EP+ (methods)
[4] = biological target: IsdB NEAT1-NEAT2 (aa residues 48-480) (S. aureus SH1000) (UniProt Q2FZF0); experiment: as above
[5] = biological target: IsdB NEAT2 (aa residues 334-458) (S. aureus SH1000) (UniProt Q2FZF0); experiment: as above

Substance: IsdB on S. aureus SH1000 cells (from UniProt Q2FZF0 41-613) (natural protein)
- adhesion of wild-type cells over isdB mutant cells [1]: 3 times

- reduction of IsdB NEAT1-NEAT2 binding to vWF at 10 μg/well [2]: 50%
Substance: collagen type IV (complex)

- reduction of IsdB NEAT1-NEAT2 binding to vWF at 10 μg/well [2]: 50%
Substance: collagen type VI (complex)

Substance: recombinant vWF A1 domain lacking the 6xHis tag (domain or fragment)
- KD1 (ligand population L1) [3]: 53 µM
- KD2 (ligand population L2) [3]: 5.3 µM
- KD1 (ligand population L1) [4]: 1.7 µM
- KD2 (ligand population L2) [4]: 0.9 µM
- KD1 (ligand population L1) [5]: 0.3 µM
- KD2 (ligand population L2) [5]: 0.4 µM
